Biological target: WT His-BRCA1(1-500)-BARD1(27-327) heterodimer (UniProt P38398 1-500; Q99728 27-327)
Experiment: pull-down

Chain of WT His-BRCA1(1-500)-BARD1(27-327) heterodimer (P38398 1-500, chain 1 of 2): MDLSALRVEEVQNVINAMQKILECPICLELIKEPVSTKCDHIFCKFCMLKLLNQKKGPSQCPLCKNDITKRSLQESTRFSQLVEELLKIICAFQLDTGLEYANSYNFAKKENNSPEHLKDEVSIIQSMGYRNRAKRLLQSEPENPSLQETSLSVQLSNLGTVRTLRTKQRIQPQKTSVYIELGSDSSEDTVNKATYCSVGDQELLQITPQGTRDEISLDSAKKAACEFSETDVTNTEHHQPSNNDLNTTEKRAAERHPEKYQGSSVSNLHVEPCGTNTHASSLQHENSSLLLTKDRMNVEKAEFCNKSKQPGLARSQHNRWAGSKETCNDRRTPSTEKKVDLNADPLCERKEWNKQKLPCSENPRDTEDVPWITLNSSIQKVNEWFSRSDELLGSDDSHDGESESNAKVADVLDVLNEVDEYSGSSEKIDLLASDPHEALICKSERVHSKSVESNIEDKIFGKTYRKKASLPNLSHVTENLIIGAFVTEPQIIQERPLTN
Chain of WT His-BRCA1(1-500)-BARD1(27-327) heterodimer (Q99728 27-327, chain 2 of 2): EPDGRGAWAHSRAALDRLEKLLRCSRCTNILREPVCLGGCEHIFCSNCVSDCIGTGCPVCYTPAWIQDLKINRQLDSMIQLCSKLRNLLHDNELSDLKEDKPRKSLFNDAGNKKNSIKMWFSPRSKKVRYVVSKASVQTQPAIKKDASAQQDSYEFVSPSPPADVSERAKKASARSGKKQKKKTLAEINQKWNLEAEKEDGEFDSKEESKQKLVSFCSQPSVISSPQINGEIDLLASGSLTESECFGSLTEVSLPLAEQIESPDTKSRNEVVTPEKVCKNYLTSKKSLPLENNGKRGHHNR

binding result: binds
B1: Human recombinant RAD51 (Abcam) (natural protein)
chain: MAMQMQLEANADTSVEEESFGPQPISRLEQCGINANDVKKLEEAGFHTVEAVAYAPKKELINIKGISEAKADKILAEAAKLVPMGFTTATEFHQRRSEIIQITTGSKELDKLLQGGIETGSITEMFGEFRTGKTQICHTLAVTCQLPIDRGGGEGKAMYIDTEGTFRPERLLAVAERYGLSGSDVLDNVAYARAFNTDHQTQLLYQASAMMVESRYALLIVDSATALYRTDYSGRGELSARQMHLARFLRMLLRLADEFGVAVVITNQVVAQVDGAAMFAADPKKPIGGNIIAHASTTRLYLRKGRGETRICKIYDSPCLPEAEAMFAINADGVGDAKD
